Experimental findings from patent publication EP4703384A1 (Chia Tai Tianqing Pharmaceutical Group Co., Ltd., dated 2026) are described below.

One experiment deals with T1, GPRC5C (human, UniProt Q9NQ84 24-441).
T1 construct: Full length on CHO-K1 cells; also called RAIG3; Human GPRC5C
Nature of the experiment: FACS on CHO-K1-GPRC5C cells.

The target of experiment [1] is T2, human GPRC5D protein (human, UniProt Q9NZD1 1-345).
T2 construct: also called hGPRC5D; CHO-K1-hGPRC5D^hi
As to the kind of experiment: FACS on CHO-K1-hGPRC5D^hi cells.

A further experiment addresses T3, mouse GPRC5D (mouse, UniProt Q9JIL6 1-344).
T3 construct: Full length, on stably transfected CHO-K1 cells; also called murineGPRC5D; CHO-K1-murineGPRC5D
T3 sequence: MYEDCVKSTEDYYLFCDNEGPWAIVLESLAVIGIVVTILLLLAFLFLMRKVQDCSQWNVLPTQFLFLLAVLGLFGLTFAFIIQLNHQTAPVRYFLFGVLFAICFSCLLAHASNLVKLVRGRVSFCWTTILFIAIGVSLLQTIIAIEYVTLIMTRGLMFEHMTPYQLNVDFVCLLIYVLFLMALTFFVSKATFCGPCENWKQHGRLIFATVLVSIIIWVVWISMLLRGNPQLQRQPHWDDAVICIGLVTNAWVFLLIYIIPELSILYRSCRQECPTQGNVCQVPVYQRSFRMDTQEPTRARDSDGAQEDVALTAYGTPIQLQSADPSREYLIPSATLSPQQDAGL
Nature of the experiment: FACS on CHO-K1-murineGPRC5D cells.

The next experiment deals with T4, GPRC5A (human, UniProt Q8NFJ5 1-357).
T4 construct: Full length on CHO-K1 cells; also called RAIG1; Human GPRC5A
As to the kind of experiment: FACS on CHO-K1-GPRC5A cells.

The target of a further experiment is T5, GPRC5B (human, UniProt Q9NZH0 29-403).
T5 construct: Full length on CHO-K1 cells; also called RAIG2; Human GPRC5B
Nature of the experiment: FACS on CHO-K1-GPRC5B cells.

In a further experiment the target is T6, monkey GPRC5D (monkey, UniProt Q9NZD1 1-343 (human entry)).
T6 construct: Full length, on stably transfected CHO-K1 cells; also called cynoGPRC5D; CHO-K1-cynoGPRC5D
T6 chain: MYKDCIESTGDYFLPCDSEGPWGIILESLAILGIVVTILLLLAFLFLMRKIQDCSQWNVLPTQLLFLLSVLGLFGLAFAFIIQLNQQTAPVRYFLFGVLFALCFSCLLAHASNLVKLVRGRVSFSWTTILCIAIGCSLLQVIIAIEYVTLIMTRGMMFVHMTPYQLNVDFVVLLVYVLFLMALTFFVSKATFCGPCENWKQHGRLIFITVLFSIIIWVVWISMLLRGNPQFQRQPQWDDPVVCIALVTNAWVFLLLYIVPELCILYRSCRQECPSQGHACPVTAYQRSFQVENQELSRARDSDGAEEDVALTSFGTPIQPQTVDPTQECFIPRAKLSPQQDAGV
As to the kind of experiment: FACS on CHO-K1-cynoGPRC5D cells.

Experiment [2] concerns the target T2, human GPRC5D protein. Nature of the experiment: FACS on NCI-H929 cells.
Experiment [3] concerns the target T7, T cell surface CD3 (human, UniProt P07766 23-207; P04234 22-171; P09693 23-182).
T7 construct: CD3 is a complex of several chains; also called CD3^+ T cells
Nature of the experiment: FACS on human CD3+ T cells.

Experiment [4] concerns the target T7, T cell surface CD3. As to the kind of experiment: cell-based or functional assay.

Residue numbers refer to the chain shown, from its start.

T2 sequence (Q9NZD1 whole entry): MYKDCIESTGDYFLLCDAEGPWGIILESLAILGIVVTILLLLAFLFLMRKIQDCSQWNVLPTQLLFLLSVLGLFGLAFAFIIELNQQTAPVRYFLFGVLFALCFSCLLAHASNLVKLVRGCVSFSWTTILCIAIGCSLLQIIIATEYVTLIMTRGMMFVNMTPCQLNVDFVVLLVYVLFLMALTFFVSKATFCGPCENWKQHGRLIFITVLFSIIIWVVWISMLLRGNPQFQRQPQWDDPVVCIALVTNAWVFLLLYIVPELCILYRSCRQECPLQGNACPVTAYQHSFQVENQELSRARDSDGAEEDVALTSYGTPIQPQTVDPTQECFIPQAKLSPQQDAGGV
T4 sequence (Q8NFJ5 whole entry): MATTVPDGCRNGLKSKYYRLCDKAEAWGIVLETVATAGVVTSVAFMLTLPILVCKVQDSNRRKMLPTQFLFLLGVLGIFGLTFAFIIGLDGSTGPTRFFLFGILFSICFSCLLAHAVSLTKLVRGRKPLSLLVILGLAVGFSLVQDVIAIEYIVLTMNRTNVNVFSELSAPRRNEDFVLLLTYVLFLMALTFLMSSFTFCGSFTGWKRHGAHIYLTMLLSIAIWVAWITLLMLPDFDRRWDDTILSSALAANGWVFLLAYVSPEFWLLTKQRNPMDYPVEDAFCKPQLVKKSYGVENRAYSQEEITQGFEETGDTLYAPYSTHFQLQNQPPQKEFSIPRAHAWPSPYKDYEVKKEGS
T5 sequence (Q9NZH0 29-403 limits assumed): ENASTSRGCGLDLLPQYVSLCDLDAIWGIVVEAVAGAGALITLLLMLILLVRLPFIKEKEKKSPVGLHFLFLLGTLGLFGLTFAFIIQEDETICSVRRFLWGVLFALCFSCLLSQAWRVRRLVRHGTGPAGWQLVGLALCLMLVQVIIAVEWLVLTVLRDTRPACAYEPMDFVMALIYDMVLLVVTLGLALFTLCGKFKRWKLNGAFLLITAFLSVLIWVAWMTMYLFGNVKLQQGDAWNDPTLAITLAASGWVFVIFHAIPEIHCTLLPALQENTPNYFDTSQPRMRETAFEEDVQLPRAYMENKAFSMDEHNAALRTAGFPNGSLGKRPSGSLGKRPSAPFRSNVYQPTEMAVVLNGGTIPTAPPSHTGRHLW
T1 sequence (Q9NQ84 24-441 limits assumed): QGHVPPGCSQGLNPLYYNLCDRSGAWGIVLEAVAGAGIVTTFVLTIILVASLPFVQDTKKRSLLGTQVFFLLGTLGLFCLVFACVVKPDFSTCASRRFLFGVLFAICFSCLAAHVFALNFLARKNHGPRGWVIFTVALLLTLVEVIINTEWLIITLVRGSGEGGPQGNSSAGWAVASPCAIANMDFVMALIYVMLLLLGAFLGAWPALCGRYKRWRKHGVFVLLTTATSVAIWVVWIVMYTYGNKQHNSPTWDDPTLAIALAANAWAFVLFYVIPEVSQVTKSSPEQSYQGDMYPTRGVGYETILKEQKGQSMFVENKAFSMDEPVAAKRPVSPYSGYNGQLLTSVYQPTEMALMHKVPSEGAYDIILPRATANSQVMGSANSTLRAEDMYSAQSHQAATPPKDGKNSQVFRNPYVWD
T7 sequence (P07766 23-207 limits assumed, chain 1 of 3): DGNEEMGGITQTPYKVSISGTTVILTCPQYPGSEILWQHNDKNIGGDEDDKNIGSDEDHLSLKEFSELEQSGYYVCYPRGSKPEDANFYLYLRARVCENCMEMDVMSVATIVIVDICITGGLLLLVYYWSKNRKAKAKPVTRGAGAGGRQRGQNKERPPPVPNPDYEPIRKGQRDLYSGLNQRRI
T7 sequence (P04234 22-171 limits assumed, chain 2 of 3): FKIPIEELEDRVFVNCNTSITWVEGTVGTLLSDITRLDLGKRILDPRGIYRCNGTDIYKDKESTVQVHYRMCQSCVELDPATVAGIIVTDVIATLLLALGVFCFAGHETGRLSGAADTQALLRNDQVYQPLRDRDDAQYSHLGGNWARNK
T7 sequence (P09693 23-182 limits assumed, chain 3 of 3): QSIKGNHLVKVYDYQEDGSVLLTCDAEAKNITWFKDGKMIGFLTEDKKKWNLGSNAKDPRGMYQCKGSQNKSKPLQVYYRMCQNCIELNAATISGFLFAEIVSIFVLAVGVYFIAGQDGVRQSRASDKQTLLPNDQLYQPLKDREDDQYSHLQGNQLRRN

B1: Chi-89 (antibody, human IgG1, kappa, V domains shown)
VH: EVQLVESGGDLVKPGGSLKLSCAASGFTFSSYGMSWVRQTPDKRLEWVATISSGGSYTYYPDSVKGRFTFSRDNAKNTLYLQMSSLKSEDTAMYYCVRQALRYHMDSWGQGTSVTVSS
VL: DIVMTQSQKFMSTSVGDRVSVTCKASQNVGTNVAWYQQKPGQSPKALIYSASYRYSGVPDRFTGSGSGTDFTLTISNVQSEDLADFFCQQYYSYPWTFGGGTKLEIKR
notes: Human-mouse chimeric antibody, human IgG1 heavy chain constant region and Kappa light chain constant region; also called chimeric antibody Chi-89
As for B1, the binding result with GPRC5C is listed as “no binding (tested: 4.1-3000 ng/mL)”; with human GPRC5D protein [1], “binds”; with mouse GPRC5D, “binds”; with GPRC5A, “no binding (tested: 4.1-3000 ng/mL)”; with GPRC5B, “no binding (tested: 4.1-3000 ng/mL)”; with monkey GPRC5D it was “binds”.

B2: Chi-105 (antibody, human IgG1, kappa, V domains shown)
VH: EVQLQQSGPELVKPGASVKMSCKASGYTFTDYYMNWVKQSHGKSLEWIGYIYPNNGGTGYNQRFKGKATLTADKSSSTAYMELRSLTSEDSAVYYCARWGGTRLGYYAMDYWGQGTSVTVSS
VL: B1 VL with A34V, A46L, S50W, Y53T, Y55H, S56T, F86Y, Y92S, S93R, W96Y
notes: Human-mouse chimeric antibody, human IgG1 heavy chain constant region and Kappa light chain constant region
B2: the binding result is “no binding (tested: 4.1-3000 ng/mL)” in the experiment with GPRC5C; “binds” in the experiment with human GPRC5D protein [1]; “no binding (tested: 4.1-3000 ng/mL)” with GPRC5A; “no binding (tested: 4.1-3000 ng/mL)” with GPRC5B; “binds” with monkey GPRC5D.

B3: Chi-131 (antibody, human IgG1, kappa, V domains shown)
VH: EVQLQQSGPELVKPGASVKMSCKASGYTFTNYVMHWVKQKPGQGLEWIGYFNPYNDGTNYNEKFKGKATLTSDKSSNTAYMELSSLTSEDSAVYYCARGGVRRYFDVWGAGTTVTVSS
VL: DIQMTQSPSSLSASLGERVSLTCRASQDIGSNLNWLQLGPDGTIKRLIYATFSLDSGVPKRFSGSRSGSDYSLTISSLESEDFVDYYCQQYANFPPTFGGGTKLEIKR
notes: Human-mouse chimeric antibody, human IgG1 heavy chain constant region and Kappa light chain constant region; also called chimeric antibody Chi-131
B3: the binding result is on record as “no binding (tested: 4.1-3000 ng/mL)” with GPRC5C; “binds” in the experiment with human GPRC5D protein [1]; “binds” with mouse GPRC5D; “no binding (tested: 4.1-3000 ng/mL)” with GPRC5A; “no binding (tested: 4.1-3000 ng/mL)” in the experiment with GPRC5B; “binds” with monkey GPRC5D.

B4: hu131-v2 (antibody, human IgG1, kappa, V domains shown)
VH: B3 VH with Q5V, P9A, L11V, K40A, K67R, K74T, S76A, T87R, S91T, A110Q
VL: DIQMTQSPSSLSASVGDRVTITCRASQDIGSNLNWLQLGPGGAIKRLIYATFSLDSGVPSRFSGSRSGSDYTLTISSLQPEDFVDYYCQQYANFPPTFGGGTKVEIKR
notes: Humanized antibody of Chi-131
As for B4, the binding result in the experiment with human GPRC5D protein [2] is listed as “binds”.

B5: hu131-v1 (antibody, human IgG1, kappa, V domains shown)
VH: EVQLVQSGAEVVKPGASVKMSCKASGYTFTNYVMHWVKQAPGQGLEWMGYFNPYNDGTNYNEKFKGRVTLTSDTSANTAYMELSSLRSEDTAVYYCARGGVRRYFDVWGQGTTVTVSS
VL: B4 VL
notes: Humanized antibody of Chi-131
On to B5, for which, in the experiment with human GPRC5D protein [2], the binding result is recorded as “binds”.

B6: hu131-v4 (antibody, human IgG1, kappa, V domains shown)
VH: B5 VH with M48I, D56E, V68A
VL: B4 VL
notes: Humanized antibody of Chi-131
For the molecule B6, the binding result with human GPRC5D protein [2] is “binds”.

B7: hu131-v3 (antibody, human IgG1, kappa, V domains shown)
VH: B5 VH with M48I, G57A, V68A
VL: B4 VL
notes: Humanized antibody of Chi-131
Turning to B7, in the experiment with human GPRC5D protein [2], the binding result was “binds”.

B8: Chi-169 (antibody, human IgG1, kappa, V domains shown)
VH: EVKLVESGGGLVKPGASLKLSCAASGFTFSNYGMSWVRQTSDKRLEWVASISSGGGRIYYPDNVKGRFTISRENAKNTLYLQMSSLKSEDTALYYCTRHAMDNWGQGTSVIVSS
VL: QIVLTQSPAIMSASPGEKVTMTCSASSSVSNMYWYQQKSGTSPKRWIYDTSKLASGVPARFSGSGSGTSYSLTISSMEAEDASTYYCQQWSSNPLTFGAGTTLELKR
notes: Human-mouse chimeric antibody, human IgG1 heavy chain constant region and Kappa light chain constant region; also called chimeric antibody Chi-169
Take B8: the binding result with GPRC5C is recorded as “no binding (tested: 4.1-3000 ng/mL)”; in the experiment with human GPRC5D protein [1] it was “binds”; with mouse GPRC5D it was “binds”; with GPRC5A it was “no binding (tested: 4.1-3000 ng/mL)”; in the experiment with GPRC5B it was “no binding (tested: 4.1-3000 ng/mL)”; in the experiment with monkey GPRC5D it was “binds”.

B9: Chi-128 (antibody, human IgG1, kappa, V domains shown)
VH: DVQLVESGGGLVQPGGSRKVSCAASGFTFSSFGMHWVRQAPEKGLEWVAYISRGSSTIYYADTVKGRFTISRDNPKNTLFLQMTSLRSEDTAMYYCARSGYGSSSYYFDYWGQGTTLTVSS
VL: ENVLTQSPAIMSASPREKVTMTCRASSSIRSSYLHWYQQKSGASPKLWIYSTSNLASGVPARFSGSGSGTSYSLTISSVEAEDAATYYCQQFSGYPLTFGGGTKLEIKR
notes: as for B2
On to B9, for which the binding result with GPRC5C was “no binding (tested: 4.1-3000 ng/mL)”; with human GPRC5D protein [1] it was “binds”; with mouse GPRC5D it was “binds”; in the experiment with GPRC5A, “no binding (tested: 4.1-3000 ng/mL)”; with GPRC5B, “no binding (tested: 4.1-3000 ng/mL)”; in the experiment with monkey GPRC5D it was “binds”.

B10: hu128-v1 (antibody, human IgG1, kappa, V domains shown)
VH: B9 VH with D1E, K19R, E42G, P75A, T78S, F80Y, T84N, S88A, M93V, L117V
VL: EIVLTQSPATLSASPGERATMSCRASSSIRSSYLHWYQQKPGQSPRLWIYSTSNLASGVPARFSGSGSGTDYTLTISSLEPEDAAVYYCQQFSGYPLTFGGGTKVEIKR
In the case of B10, the binding result with human GPRC5D protein [2] is listed as “binds”.

B11: Talquetamab (bispecific antibody, human IgG4 S228P, kappa, lambda, F234A L235A)
heavy 1: not shown
light 1: DIQMTQSPSSLSASVGDRVTITCKASQNVATHVGWYQQKPGKAPKRLIYSASYRYSGVPSRFSGSGSGTEFTLTISNLQPEDFATYYCQQYNRYPYTFGQGTKLEIKRTVAAPSVFIFPPSDEQLKSGTASVVCLLNNFYPREAKVQWKVDNALQSGNSQESVTEQDSKDSTYSLSSTLTLSKADYEKHKVYACEVTHQGLSSPVTKSFNRGEC
heavy 2: EVQLVESGGGLVQPGGSLRLSCAASGFTFNTYAMNWVRQAPGKGLEWVARIRSKYNNYATYYAASVKGRFTISRDDSKNSLYLQMNSLKTEDTAVYYCARHGNFGNSYVSWFAYWGQGTLVTVSSASTKGPSVFPLAPCSRSTSESTAALGCLVKDYFPEPVTVSWNSGALTSGVHTFPAVLQSSGLYSLSSVVTVPSSSLGTKTYTCNVDHKPSNTKVDKRVESKYGPPCPPCPAPEAAGGPSVFLFPPKPKDTLMISRTPEVTCVVVDVSQEDPEVQFNWYVDGVEVHNAKTKPREEQFNSTYRVVSVLTVLHQDWLNGKEYKCKVSNKGLPSSIEKTISKAKGQPREPQVYTLPPSQEEMTKNQVSLTCLVKGFYPSDIAVEWESNGQPENNYKTTPPVLDSDGSFLLYSKLTVDKSRWQEGNVFSCSVMHEALHNHYTQKSLSLSLGK
light 2: QTVVTQEPSLTVSPGGTVTLTCRSSTGAVTTSNYANWVQQKPGQAPRGLIGGTNKRAPGTPARFSGSLLGGKAALTLSGVQPEDEAEYYCALWYSNLWVFGGGTKLTVLGQPKAAPSVTLFPPSSEELQANKATLVCLISDFYPGAVTVAWKADSSPVKAGVETTTPSKQSNNKYAASSYLSLTPEQWKSHRSYSCQVTHEGSTVEKTVAPTECS
notes: Four polypeptide chains; also called benchmark; BM
In general, EC50 refers to the midpoint of the concentration-response curve. Take B11: in the experiment with T cell surface CD3 [3], the response was half-maximal at 5.35 nM (EC50) and the “Top(MFI)” value was 155000 MFI. In the experiment with T cell surface CD3 [4], the “CD25/CD4 EC50(nM), activation of T cells in the presence of MM.1S” value is 0.0637 nM; the “CD25/CD8 EC50(nM), activation of T cells in the presence of MM.1S” value amounted to 0.0592 nM; the “CD69/CD4 EC50(nM), activation of T cells in the presence of MM.1S” value was 0.046 nM; the “CD69/CD8 EC50(nM), activation of T cells in the presence of MM.1S” value was 0.0329 nM.
